Results published in paper PMC3735194 (mBio, 2013).
Numbering of substitutions follows the chain as printed. In names and notes the source's numbering stands.

B1: D166A mutant ADI (enzyme, UniProt P0C0B3 1-411, looked up)
chain: MTAQTPIHVYSEIGKLKKVLLHRPGKEIENLMPDYLERLLFDDIPFLEDAQKEHDAFAQALRDEGIEVLYLETLAAESLVTPEIREAFIDEYLSEANIRGRATKKAIRELLMAIEDNQELIEKTMAGVQKSELPEIPASEKGLTDLVESNYPFAIDPMPNLYFTRAPFATIGTGVSLNHMFSETRNRETLYGKYIFTHHPIYGGGKVPMVYDRNETTRIEGGDELVLSKDVLAVGISQRTDAASIEKLLVNIFKQNLGFKKVLAFEFANNRKFMHLDTVFTMVDYDKFTIHPEIEGDLRVYSVTYDNEELHIVEEKGDLAELLAANLGVEKVDLIRCGGDNLVAAGREQWNDGSNTLTIAPGVVVVYNRNTITNAILESKGLKLIKIHGSELVRGRGGPRCMSMPFEREDI
B2: D277A mutant ADI (enzyme, UniProt P0C0B3 1-411, looked up)
chain: B1 chain with A166D, D277A
B3: H275A mutant ADI (enzyme, UniProt P0C0B3 1-411, looked up)
chain: B1 chain with A166D, H275A
B4: E220A mutant ADI (enzyme, UniProt P0C0B3 1-411, looked up)
chain: B1 chain with A166D, E220A
B5: C401A mutant ADI (enzyme, UniProt P0C0B3 1-411, looked up)
chain: B1 chain with A166D, C401A

Target: the molecule itself
Experiment: native MS

B1 was tested. Which “stoichiometry N” value did it give?
The value was 2.

B2 was tested. Which “stoichiometry N” value did it give?
Its value is 2.

B3 was tested. Which “stoichiometry N” value did it give?
Its value is 2.

B4 was tested. Which “stoichiometry N” value did it give?
The value was 2.

With B5 as the protein, how does the “stoichiometry N” value read?
The value was 4.
